Source: PMC12752125

Molecular target: porcine PD-1 (programmed death 1) expressed on HEK293T cells (porcine)
Test: flow cytometry on cells; HEK293T cells transfected with pcDNA3.1-PD-1 (or empty vector) for 24 h; purified PD-L1-Fc added and incubated for 1 h; percent of positive cells read

## porcine PD-L1-rabbit Fc fusion protein
  percent of cells positive: 38.3%
